Experimental findings from US20030165986A1 (IMMUNEX, published 2003) are described below.

In this assay the target is T1, TACI ligand (TACI-L), expressed on transfected cells (Homo sapiens (Human), UniProt Q9Y275 1-285).
T1 construct: cDNA of TACI-L transfected into cells on slides and into CV1 cells (flow cytometry); also called Neutrokine alpha; TL5
The assay can be described thus: slide binding assay on cDNA-transfected cells. How it is done:
[…] by adding 2 μg of the DNA encoding the members of the ligand family to a sterile tube and adding 75 μM choloroquine in transfection/growth medium to a final volume of 175 μl. 25 μl of DEAE-dextran (4 mg/ml in PBS) was then added to the DNA solution and mixed.
The growth medium was aspirated from the slides and replaced with 3 ml of 75 μM chloroquine in the transfectionfgrowth medium, followed by the addition of the DNA/DEAE-dextran mixture to the cells. The slides were rocked side-to-side and back-and-forth to distribute the precipitated DNA evenly. The slides were incubated at 37° C. for 4.5 hours.
To screen for positive pools expressing the cell-bound protein, slides were incubated with TACI:Fc and then with a radioiodinated protein probe (labeled goat anti-human Fc F(ab′)2) for 30 minutes at room temperature. The probe solution is then removed by aspiration and washed to remove the non-specifically bound probe. Finally, the slides were fixed by incubating each slide with 1 ml 2.5% glutaraldehyde in PBS for 30 minutes at room temperature to retain specifically bound label. The slides were then washed twice with 1 ml PBS and air-dried.

T1 sequence (Q9Y275 whole entry): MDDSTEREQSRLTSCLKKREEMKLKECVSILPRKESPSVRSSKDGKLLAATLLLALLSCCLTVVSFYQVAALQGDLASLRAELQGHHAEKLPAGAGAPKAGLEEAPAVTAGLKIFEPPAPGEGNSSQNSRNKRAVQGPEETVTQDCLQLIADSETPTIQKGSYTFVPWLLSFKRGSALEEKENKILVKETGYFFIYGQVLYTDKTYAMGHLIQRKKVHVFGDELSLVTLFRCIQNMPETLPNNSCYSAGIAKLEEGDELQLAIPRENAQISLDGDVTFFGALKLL

B1: TACI-Fc (Fc fusion)
chain: SGLGRSRRGGRSRVDQEERFPQGLWTGVAMRSCPEEQYWDPLLGTCMSCKTICNHQSQRTCAAFCRSLSCRKEQGKFYDHLLRDCISCASICGQHPKQCAYFCENKLRSPVNLPPELRRQRSGEVENNSDNSGRYQGLEHRGSEASPALPGLKLSADQVALVYST
notes: also called HuTACI/Fc; Fc chimera; not shown: Fc portion of human IgG1, fused in-frame at the 3' end
For the molecule B1, the binding result was “binds”.
